Source: paper PMC314469, “Protein Interaction Networks by Proteome Peptide Scanning” (PLoS Biology, 2004)
Values belong to the binder of their own block, whether it stands above or below them.

Key:
[1] = target: T1, amphyphisin SH3 (AMPH_HUMAN), P49418; test: SPOT array
T1 chain: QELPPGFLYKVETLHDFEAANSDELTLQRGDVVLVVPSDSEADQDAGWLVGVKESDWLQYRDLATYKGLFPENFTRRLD

[2] = target: endophilin SH3 (SH3G2_HUMAN), Q99962; test: SPOT array

normalised SPOT signal, Boehringer light units (BLU); mean over the file's lines of this peptide [1]: 95.2
normalised SPOT signal, Boehringer light units (BLU); mean over the file's lines of this peptide [2]: 557
B1: P23470 266-279 (peptide)
chain: EWIVFRRPVPISYH

normalised SPOT signal, Boehringer light units (BLU); mean over the file's lines of this peptide [1]: 36.5
normalised SPOT signal, Boehringer light units (BLU); mean over the file's lines of this peptide [2]: 36.7
B2: O94885 388-402 (peptide)
chain: FDGSPEKPPEDDSD

normalised SPOT signal, Boehringer light units (BLU); mean over the file's lines of this peptide [1]: 1220
normalised SPOT signal, Boehringer light units (BLU); mean over the file's lines of this peptide [2]: 170
B3: Q99743 208-221 (peptide)
chain: FDNTLSRPSRVPLG

normalised SPOT signal, Boehringer light units (BLU); mean over the file's lines of this peptide [1]: 43.8
normalised SPOT signal, Boehringer light units (BLU); mean over the file's lines of this peptide [2]: 67.7
B4: Q9BPU7 391-404 (peptide)
chain: FEGSLRRPLSWKSL

normalised SPOT signal, Boehringer light units (BLU); mean over the file's lines of this peptide [1]: 48.3
normalised SPOT signal, Boehringer light units (BLU); mean over the file's lines of this peptide [2]: 994
B5: Q96QH2 422-436 (peptide)
chain: FGDLPRKPPLPSSA

normalised SPOT signal, Boehringer light units (BLU); mean over the file's lines of this peptide [1]: 16.4
normalised SPOT signal, Boehringer light units (BLU); mean over the file's lines of this peptide [2]: 182
B6: Q9Y6U5 44-57 (peptide)
chain: ETSMLKRPVLLHLQ

normalised SPOT signal, Boehringer light units (BLU); mean over the file's lines of this peptide [1]: 38.5
normalised SPOT signal, Boehringer light units (BLU); mean over the file's lines of this peptide [2]: 36.6
B7: BAC04305 7-21 (peptide)
chain: EYALPQRPPQGPED

normalised SPOT signal, Boehringer light units (BLU); mean over the file's lines of this peptide [1]: 34
normalised SPOT signal, Boehringer light units (BLU); mean over the file's lines of this peptide [2]: 45.5
B8: P49790 786-799 (peptide)
chain: FGDKFKRPIGSWES

normalised SPOT signal, Boehringer light units (BLU); mean over the file's lines of this peptide [1]: 647
normalised SPOT signal, Boehringer light units (BLU); mean over the file's lines of this peptide [2]: 284
B9: Q99526 361-374 (peptide)
chain: FGLVPERPLKQELG

normalised SPOT signal, Boehringer light units (BLU); mean over the file's lines of this peptide [1]: 272
normalised SPOT signal, Boehringer light units (BLU); mean over the file's lines of this peptide [2]: 102
B10: P01034 24-38 (peptide)
chain: AGSSPGKPPRLVGG

normalised SPOT signal, Boehringer light units (BLU); mean over the file's lines of this peptide [1]: 3460
normalised SPOT signal, Boehringer light units (BLU); mean over the file's lines of this peptide [2]: 557
B11: P36959 12-25 (peptide)
chain: FKDVLLRPKRSSLK

normalised SPOT signal, Boehringer light units (BLU); mean over the file's lines of this peptide [1]: 384
normalised SPOT signal, Boehringer light units (BLU); mean over the file's lines of this peptide [2]: 121
B12: Q9NRY7 86-99 (peptide)
chain: EVITLERPLRSNSS

normalised SPOT signal, Boehringer light units (BLU); mean over the file's lines of this peptide [1]: 236
normalised SPOT signal, Boehringer light units (BLU); mean over the file's lines of this peptide [2]: 2210
B13: Q9ULT8 713-726 (peptide)
chain: EVMILRRPSLQRRA

normalised SPOT signal, Boehringer light units (BLU); mean over the file's lines of this peptide [1]: 248
normalised SPOT signal, Boehringer light units (BLU); mean over the file's lines of this peptide [2]: 238
B14: Q9UFB1 214-227 (peptide)
chain: AHLPPPRPQRPAET

normalised SPOT signal, Boehringer light units (BLU); mean over the file's lines of this peptide [1]: 43.8
normalised SPOT signal, Boehringer light units (BLU); mean over the file's lines of this peptide [2]: 86
B15: BAC04960 97-111 (peptide)
chain: EYHRPAKPPPPPTG

normalised SPOT signal, Boehringer light units (BLU); mean over the file's lines of this peptide [1]: 43.8
normalised SPOT signal, Boehringer light units (BLU); mean over the file's lines of this peptide [2]: 34.9
B16: P78524 857-870 (peptide)
chain: EVLELRRPMDSRLE

normalised SPOT signal, Boehringer light units (BLU); mean over the file's lines of this peptide [1]: 41.6
normalised SPOT signal, Boehringer light units (BLU); mean over the file's lines of this peptide [2]: 204
B17: Q9UPW7 1021-1034 (peptide)
chain: FAPEFRRPKNIHLR

normalised SPOT signal, Boehringer light units (BLU); mean over the file's lines of this peptide [1]: 308
normalised SPOT signal, Boehringer light units (BLU); mean over the file's lines of this peptide [2]: 170
B18: O94987 53-66 (peptide)
chain: EWASLLRPLRGREP

normalised SPOT signal, Boehringer light units (BLU); mean over the file's lines of this peptide [1]: 103
normalised SPOT signal, Boehringer light units (BLU); mean over the file's lines of this peptide [2]: 63
B19: P11532 250-263 (peptide)
chain: EVEMLPRPPKVTKE

normalised SPOT signal, Boehringer light units (BLU); mean over the file's lines of this peptide [1]: 35.7
normalised SPOT signal, Boehringer light units (BLU); mean over the file's lines of this peptide [2]: 83.3
B20: Q8WUZ5 5-18 (peptide)
chain: FGRRPRRPVDGRVG

normalised SPOT signal, Boehringer light units (BLU); mean over the file's lines of this peptide [1]: 36
normalised SPOT signal, Boehringer light units (BLU); mean over the file's lines of this peptide [2]: 41.8
B21: P17096 49-62 (peptide)
chain: EVPTPKRPRGRPKG

normalised SPOT signal, Boehringer light units (BLU); mean over the file's lines of this peptide [1]: 143
normalised SPOT signal, Boehringer light units (BLU); mean over the file's lines of this peptide [2]: 136
B22: Q9BXU7 105-118 (peptide)
chain: EVQPPVRPGKGGSV

normalised SPOT signal, Boehringer light units (BLU); mean over the file's lines of this peptide [1]: 484
normalised SPOT signal, Boehringer light units (BLU); mean over the file's lines of this peptide [2]: 122
B23: Q16530 104-117 (peptide)
chain: EVFFPPRPERVEHN

normalised SPOT signal, Boehringer light units (BLU); mean over the file's lines of this peptide [1]: 66.2
normalised SPOT signal, Boehringer light units (BLU); mean over the file's lines of this peptide [2]: 351
B24: P17480 292-306 (peptide)
chain: FDGRPTKPPPNSYS

normalised SPOT signal, Boehringer light units (BLU); mean over the file's lines of this peptide [1]: 20.7
normalised SPOT signal, Boehringer light units (BLU); mean over the file's lines of this peptide [2]: 51.2
B25: Q96IQ9 293-306 (peptide)
chain: AGSSPRRPQGGSDA

normalised SPOT signal, Boehringer light units (BLU); mean over the file's lines of this peptide [1]: 14.8
normalised SPOT signal, Boehringer light units (BLU); mean over the file's lines of this peptide [2]: 7.9
B26: O14802 125-138 (peptide)
chain: FLDYLKRPGLTYLQ

normalised SPOT signal, Boehringer light units (BLU); mean over the file's lines of this peptide [1]: 79.9
normalised SPOT signal, Boehringer light units (BLU); mean over the file's lines of this peptide [2]: 440
B27: Q9UHE8 34-47 (peptide)
chain: ETSMLKRPVLLHLH

normalised SPOT signal, Boehringer light units (BLU); mean over the file's lines of this peptide [1]: 38.5
normalised SPOT signal, Boehringer light units (BLU); mean over the file's lines of this peptide [2]: 926
B28: O75408 12-26 (peptide)
chain: ETSGPERPPEKPRK

normalised SPOT signal, Boehringer light units (BLU); mean over the file's lines of this peptide [1]: 22
normalised SPOT signal, Boehringer light units (BLU); mean over the file's lines of this peptide [2]: 399
B29: Q9H3T9 40-53 (peptide)
chain: FSDFLKRPIALLKM

normalised SPOT signal, Boehringer light units (BLU); mean over the file's lines of this peptide [1]: 117
normalised SPOT signal, Boehringer light units (BLU); mean over the file's lines of this peptide [2]: 479
B30: Q99853 71-84 (peptide)
chain: FIKIPRRPDQPGKG

normalised SPOT signal, Boehringer light units (BLU); mean over the file's lines of this peptide [1]: 62.9
normalised SPOT signal, Boehringer light units (BLU); mean over the file's lines of this peptide [2]: 159
B31: O75449 234-247 (peptide)
chain: FFKGIRRPWKGVLM

normalised SPOT signal, Boehringer light units (BLU); mean over the file's lines of this peptide [1]: 4010
normalised SPOT signal, Boehringer light units (BLU); mean over the file's lines of this peptide [2]: 343
B32: Q9NVW8 331-344 (peptide)
chain: FERPFRRPNANFTS

normalised SPOT signal, Boehringer light units (BLU); mean over the file's lines of this peptide [1]: 52.3
normalised SPOT signal, Boehringer light units (BLU); mean over the file's lines of this peptide [2]: 77.3
B33: O75336 479-493 (peptide)
chain: FGTLPPRPPGQDTS

normalised SPOT signal, Boehringer light units (BLU); mean over the file's lines of this peptide [1]: 137
normalised SPOT signal, Boehringer light units (BLU); mean over the file's lines of this peptide [2]: 417
B34: Q9HCH8 560-573 (peptide)
chain: AHMAISRPLKASQM

normalised SPOT signal, Boehringer light units (BLU); mean over the file's lines of this peptide [1]: 164
normalised SPOT signal, Boehringer light units (BLU); mean over the file's lines of this peptide [2]: 1230
B35: Q9NUK8 110-123 (peptide)
chain: FLSIPRRPNWNQNT

normalised SPOT signal, Boehringer light units (BLU); mean over the file's lines of this peptide [1]: 18.4
normalised SPOT signal, Boehringer light units (BLU); mean over the file's lines of this peptide [2]: 51.1
B36: Q07283 41-54 (peptide)
chain: FGAVLRRPHDPKTV

normalised SPOT signal, Boehringer light units (BLU); mean over the file's lines of this peptide [1]: 660
normalised SPOT signal, Boehringer light units (BLU); mean over the file's lines of this peptide [2]: 102
B37: O15162 171-184 (peptide)
chain: EVITLERPLRSSSS

normalised SPOT signal, Boehringer light units (BLU); mean over the file's lines of this peptide [1]: 15900
normalised SPOT signal, Boehringer light units (BLU); mean over the file's lines of this peptide [2]: 2980
B38: Q13258 335-348 (peptide)
chain: FHKIFIRPLRYRSR

normalised SPOT signal, Boehringer light units (BLU); mean over the file's lines of this peptide [1]: 135
normalised SPOT signal, Boehringer light units (BLU); mean over the file's lines of this peptide [2]: 281
B39: Q9HC10 643-656 (peptide)
chain: EVDGLSRPQRPRPR

normalised SPOT signal, Boehringer light units (BLU); mean over the file's lines of this peptide [1]: 168
normalised SPOT signal, Boehringer light units (BLU); mean over the file's lines of this peptide [2]: 190
B40: P78508 165-178 (peptide)
chain: FLAKIARPKKRAET

normalised SPOT signal, Boehringer light units (BLU); mean over the file's lines of this peptide [1]: 198
normalised SPOT signal, Boehringer light units (BLU); mean over the file's lines of this peptide [2]: 228
B41: O60275 1047-1060 (peptide)
chain: EVPDPNRPQRLGLH

normalised SPOT signal, Boehringer light units (BLU); mean over the file's lines of this peptide [1]: 48.9
normalised SPOT signal, Boehringer light units (BLU); mean over the file's lines of this peptide [2]: 147
B42: Q9NWR1 213-226 (peptide)
chain: FEEGIKRPYFHVKP
